Laboratory results taken from publication doi:10.1101/2021.01.27.428421.

Target: tdPCP-GFP-VPR (PP7 (from the protein's name) | not stated)
Assay: fluorescence intensity at the reporter gene array in cells

Substance: tdPCP-GFP-VPR
- fold signal at the reporter array against tdPCP-GFP-VP16: 1.9 fold
